B1: Ribonuclease HI, P0A7Y4 (parent)
chain: MLKQVEIFTDGSCLGNPGPGGYGAILRYRGREKTFSAGYTRTTNNRMELMAAIVALEALKEHCEVILSTDSQYVRQGITQWIHNWKKRGWKTADKKPVKNVDLWQRLDAALGQHQIKWEWVKGHAGHPENERCDELARAAAMNPTLEDTGYQVEV

Variants of: B1
Details: Escherichia coli (strain K12), CD, reversible: yes, structure 2RN2, whole UniProt chain shown
[1] = pH 3, 49.8 °C, Thermal, glycine-HCl 10 mM
[2] = pH 3, Thermal, glycine-HCl 10 mM
[3] = pH 5.5, 25 °C, Urea, Sodium acetate 10 mM, NaCl 0.1 M

Variant	ddG of mutation (higher = less stable) [1] [kcal/mol]	Tm [2] [°C]	change of melting temperature, mutant - wild type (higher = more stable) [2] [°C]	unfolding enthalpy (van 't Hoff) [2] [kcal/mol]	ddG of mutation (higher = less stable) [3] [kcal/mol]	denaturant m value [3] [kcal/mol/M]	denaturant midpoint (higher = more stable) [3] [M]	unfolding free energy [3] [kcal/mol]
MLKQVEIFTDGSCLGNPGPGGYGAILRYRGREKTFSAGYTRTTNNRMELMAAIVALEALKEHCEVILATDSQYVRQGITQWIHNWKKRGWKTADKKPVKNVDLWQRLDAALGQHQIKWEWVKGHAGHPENERCDELARAAAMNPTLEDTGYQVEV [S68A]	0.5	48.3	-1.5	89	-0.19	2.06	4.8	10
MLKQVEIFTDGSCLGNPGPGGYGAILRYRGREKTFSAGYTRTTNNRMELMAAIVALEALKEHCEVILGTDSQYVRQGITQWIHNWKKRGWKTADKKPVKNVDLWQRLDAALGQHQIKWEWVKGHAGHPENERCDELARAAAMNPTLEDTGYQVEV [S68G]	2.4	41.8	-8	84.7	2.2	2	4	7.61
MLKQVEIFTDGSCLGNPGPGGYGAILRYRGREKTFSAGYTRTTNNRMELMAAIVALEALKEHCEVILLTDSQYVRQGITQWIHNWKKRGWKTADKKPVKNVDLWQRLDAALGQHQIKWEWVKGHAGHPENERCDELARAAAMNPTLEDTGYQVEV [S68L]	0.5	48.2	-1.6	84				
MLKQVEIFTDGSCLGNPGPGGYGAILRYRGREKTFSAGYTRTTNNRMELMAAIVALEALKEHCEVILTTDSQYVRQGITQWIHNWKKRGWKTADKKPVKNVDLWQRLDAALGQHQIKWEWVKGHAGHPENERCDELARAAAMNPTLEDTGYQVEV [S68T]	0.2	49.1	-0.7	106	-0.1	1.95	5	9.91
MLKQVEIFTDGSCLGNPGPGGYGAILRYRGREKTFSAGYTRTTNNRMELMAAIVALEALKEHCEVILVTDSQYVRQGITQWIHNWKKRGWKTADKKPVKNVDLWQRLDAALGQHQIKWEWVKGHAGHPENERCDELARAAAMNPTLEDTGYQVEV [S68V]	-0.6	51.7	1.9	98.8	-1.29	2.13	5.1	11.1

Reference: FireProtDB (doi:10.1111/j.1432-1033.1992.tb16932.x)
